Residue numbers refer to the chain shown, from its start.
B1: nanobody A10 (VHH)
VHH: QVQLQESGGGFVQPGGSLRLSCAASGFTLDYYFIGWFRQAPGKEREGVSCISSSDGSTYYAESVKGRFTISRDNAKNTVYLQMNSLKPEDTAVYYCATDKIVCSSDFIVDYGMDSRGKGTQVTVSS
notes: alpaca, immunised with Pf12-Pf41 complex; Pf12-specific; source: E. coli WK6, periplasmic extract, purified (HisTrap, SEC)
B2: nanobody D12 (VHH)
VHH: QVQLQESGGGLVEAGGSLRLSCAASTRTFSSLVMGWFRQAPGKERELVAAISRSGDSTDYTDSVKGRFTISRDNAKNTVYLQMNSLKPEDTAVYSCAADPTGVDSSLAVGLWVYWGQGTQVTVSS
notes: as for B1
B3: nanobody B5 (VHH)
VHH: QVQLQESGGGLVQPGGSLRLSCAASGFTLDEYAMGWFRQAPGKEREGISCISSSDGTTFYADSVKGRFTISRDNAKNTVYLQMNSLKPEDTAVYYCATDCVGSYSRYWGQGTQVTVSS
notes: alpaca, immunised with Pf12-Pf41 complex; Pf12-specific; The 'Nb B5 of PDB ID 7KJH' used as a search model may be another nanobody of the same label; source: E. coli WK6, periplasmic extract, purified (HisTrap, SEC)
B4: nanobody C12 (VHH)
VHH: QVQLQESGGGLVQAGGSLRLSCAASGRTFSSYSMGWFRQAPGKQRELVAAISSGGSTDYTDSVKGRFTISRDNAKNTVYLQMNSLKPEDTAVYYCAAGDYSDYVGMWDIWGQGTQVTVSS
notes: as for B1
B5: nanobody C1 (VHH)
VHH: QVQLQESGGGLVQPGASLRLSCTVSGIIMADHAIGWFRQAPGKEREGIACFIRSDGTTYYSDSAKGRFTISRDNAKNTVYLQMNSLKPEDTADYYCATGKIVCANGFIVDYGSDYRGKGTQVTVSS
notes: as for B1
B6: nanobody B11 (VHH)
VHH: QVQLQESGGGLVQAGGSLRLSCAASGRTFSSYAMGWFRQAPGKEREFVAAISWNGGRTYYADSVKGRFTISRDNAKNTVYLQMNSLKPEDTAVYYCAADPTGTVDDETGIYVYWGQGTQVTVSS
notes: as for B1
B7: nanobody C9 (VHH)
VHH: QVQLQESGGGLVQPGGSLRLSCAASGFTLDYYAIGWFRQAPGKEREGVSCISSSGGSTYYADSVKGRSTISRDNAKNTVYLQMNSLKPEDTAVYYCATDCLRDYGLEYVPGRYDYWGQGTQVTVSS
notes: as for B1
B8: Pf12 D1D2 F241L (domain or fragment)
chain: NLTCDFNDVYKLEFHPNQQTSVTKLCNLTPNVLEKVTIKCGSDKLNYNLYPPTCFEEVYASRNMMHLKKIKEFVIGSSMFMRRSLTPNKINEVSFRIPPNMMPEKPIYCFCENKKTITINGSNGNPSSKKDIINRGIVEIIIPSLNEKVKGCDFTTSESTIFSKGYSINEISNKSSNNQQDIVCTVKAHANDLIGFKCPSNYSVEPHDCFVSALNLSGKNENLENKLKLTNIIMDHYNNTFYSRLPSLISDNWKFFCVCSKDNEKKLVFTVEASISS
notes: Pf12, Plasmodium falciparum, residues N28-S304 (D1D2); source: Spodoptera frugiperda 21 cells, purified (Ni-IMAC, TEV cleavage, SEC); not shown: His8, N-terminal, cleaved
B9: Pf12 D1D2 R123A (domain or fragment)
chain: B8 chain with R96A, L214F
notes: as for B8
B10: Pf12 D1D2 R109A (domain or fragment)
chain: B8 chain with R82A, L214F
notes: as for B8
B11: Pf12 D1D2 M106A (domain or fragment)
chain: B8 chain with M79A, L214F
notes: as for B8
B12: Pf12 D1D2 R110A (domain or fragment)
chain: B8 chain with R83A, L214F
notes: as for B8
B13: Pf12 D1D2 H234A (domain or fragment)
chain: B8 chain with H207A, L214F
notes: as for B8
B14: Pf12 D1D2 M108A (domain or fragment)
chain: B8 chain with M81A, L214F
notes: as for B8

The binders below were run against T1, Pf12 D1D2 (residues 28-304), untagged (Plasmodium falciparum, UniProt C6KSX0) (assay: BLI; Octet RED96e; nanobodies loaded on NTA sensors; untagged Pf12 or Pf41 (6-200 nM) or their domains in solution; PBS pH 7.4, 0.1% BSA, 0.05% TWEEN-20, 25°C; global 1:1 fit). Settings: both partners purified.
T1 construct: Pf12, Plasmodium falciparum 6-cysteine protein, residues N28-S304 (domains D1 and D2); lacks the signal peptide and the GPI-anchor site; After TEV cleavage three residues, GAS, remain at the N-terminus as cloning artefacts; N-glycosylation sites kept; treated with PNGase F before crystallisation; also called Pf12 wildtype; source: Spodoptera frugiperda 21 cells, secreted into growth media, …

Row | Binder | Kd [nM] | binding result
1 | B1 | < 0.01 | 
2 | B2 |  | binds
3 | B3 | < 0.01 | 
4 | B4 |  | binds
5 | B5 |  | binds
6 | B6 |  | binds
7 | B7 | < 0.01 | 

Each binder was assayed against T2, Pf41 D1D2 (residues 21-368), untagged (Plasmodium falciparum, UniProt Q8I1Y0) in the same assay as above. Settings: both partners purified.
T2 construct: Pf41, Plasmodium falciparum 6-cysteine protein, residues K21-S368 (D1 with the inserted-domain-like region ID, and D2); lacks the signal peptide and ten C-terminal residues; After TEV cleavage three residues, GAS, remain at the N-terminus as cloning artefacts; N-glycosylation sites kept; treated with PNGase F before crystallisation; also called Pf41 wildtype; source: Spodoptera frugiperda 21 …

Row | Binder | binding result
8 | B1 | no binding
9 | B2 | no binding
10 | B3 | no binding
11 | B4 | no binding
12 | B5 | no binding
13 | B6 | no binding
14 | B7 | no binding

These binders were tested against T3, Pf12 D2 (residues E174-S304) (Plasmodium falciparum, UniProt C6KSX0) in the same assay as above. Settings: both partners purified.
T3 construct: Pf12, Plasmodium falciparum, C-terminal 6-cys domain D2, residues E174-S304; also called Pf12 D2 domain; source: Spodoptera frugiperda 21 cells, purified by the same protocol as Pf12 D1D2; not shown: His8, N-terminal, cleaved

Row | Binder | binding result
15 | B2 | binds
16 | B4 | binds
17 | B5 | binds
18 | B6 | binds

The binders below were run against T4, octa-histidine tagged Pf41 D1D2 (residues 21-368) (Plasmodium falciparum, UniProt Q8I1Y0 21-368) (assay: BLI; Octet RED96e; octa-histidine tagged Pf41 loaded on NTA sensors; untagged Pf12 wildtype, mutant or single domain 31-1000 nM; PBS pH 7.4, 0.1% BSA, 0.05% TWEEN-20, 25°C; read-out relative maximum response against wildtype). Settings: both partners purified.
T4 construct: Pf41, Plasmodium falciparum 6-cysteine protein, residues K21-S368; TEV-cleavable tag left on; loaded on NTA sensors; also called tagged wildtype Pf41; source: Spodoptera frugiperda 21 cells, secreted into growth media, purified as tagged protein (Ni-IMAC, SEC); not shown: His8, N-terminal, kept
T4 sequence: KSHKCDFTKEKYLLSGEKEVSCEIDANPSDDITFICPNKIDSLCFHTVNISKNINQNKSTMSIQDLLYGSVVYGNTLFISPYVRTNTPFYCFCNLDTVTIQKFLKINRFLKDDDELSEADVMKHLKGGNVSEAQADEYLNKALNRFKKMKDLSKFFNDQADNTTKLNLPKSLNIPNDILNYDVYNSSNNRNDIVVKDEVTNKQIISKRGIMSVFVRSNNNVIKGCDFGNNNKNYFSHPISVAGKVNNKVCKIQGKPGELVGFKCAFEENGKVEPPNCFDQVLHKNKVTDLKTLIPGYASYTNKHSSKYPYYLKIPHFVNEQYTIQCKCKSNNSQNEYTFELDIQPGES

Row | Binder | binding result
19 | B8 | binds
20 | B9 | binds
21 | B10 | binds
22 | B11 | binds
23 | B12 | binds
24 | B13 | binds
25 | B14 | binds

Reference: publication PMC8930183, “Structure of the Pf12 and Pf41 heterodimeric complex of Plasmodium falciparum 6-cysteine proteins” (FEMS Microbes, 2022)
